Two molecules from publication PMC6535076, “Poly(ADP-ribosyl)ation and DNA repair synthesis in the extracts of naked mole rat, mouse, and human cells” can be followed below.

One series concerns the target PARP2 (mouse (murine), UniProt O88554 1-559). In words: photoaffinity crosslinking; 100 nM protein, 100 nM DNA, EDTA; UV photo-crosslinking, 100 nM 5'-32P photoreactive DNA, EDTA present, Pol beta carried over from probe synthesis, SDS-PAGE; binding buffer, pH and temperature not given in the material. To be noted: protein: recombinant; label: 5'-32P on strand 1; nicked duplex of 3 strands (upstream, downstream, template), blunt outer ends, 5'-dRP at nick.

A further series addresses PARP1 (human, UniProt P09874 1-1014). The description is as above. Conditions: protein: recombinant; label: 5'-32P on strand 1; nicked duplex of 3 strands (upstream, downstream, template), blunt outer ends, 5'-dRP at nick.
Another series has as its target HMGB1 (calf (thymus), UniProt P10103 2-215). In words: photoaffinity crosslinking; 300 nM protein, 100 nM DNA, EDTA; more efficient than other DNAs; UV photo-crosslinking, 100 nM 5'-32P photoreactive DNA, EDTA present, Pol beta carried over from probe synthesis, SDS-PAGE; binding buffer, pH and temperature not given in the material. Conditions: protein: native; label: 5'-32P on strand 1; nicked duplex of 3 strands, blunt outer ends, 6-nt 5' single-stranded flap (GATAAC) at nick.

Chain of HMGB1 (P10103 2-215): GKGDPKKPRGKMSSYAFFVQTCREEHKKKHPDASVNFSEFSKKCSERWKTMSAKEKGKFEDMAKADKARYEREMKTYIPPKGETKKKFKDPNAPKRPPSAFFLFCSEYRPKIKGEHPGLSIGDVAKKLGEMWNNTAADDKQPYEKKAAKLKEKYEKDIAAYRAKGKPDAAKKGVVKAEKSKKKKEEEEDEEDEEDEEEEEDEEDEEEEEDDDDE
Chain of PARP1 (P09874 whole entry): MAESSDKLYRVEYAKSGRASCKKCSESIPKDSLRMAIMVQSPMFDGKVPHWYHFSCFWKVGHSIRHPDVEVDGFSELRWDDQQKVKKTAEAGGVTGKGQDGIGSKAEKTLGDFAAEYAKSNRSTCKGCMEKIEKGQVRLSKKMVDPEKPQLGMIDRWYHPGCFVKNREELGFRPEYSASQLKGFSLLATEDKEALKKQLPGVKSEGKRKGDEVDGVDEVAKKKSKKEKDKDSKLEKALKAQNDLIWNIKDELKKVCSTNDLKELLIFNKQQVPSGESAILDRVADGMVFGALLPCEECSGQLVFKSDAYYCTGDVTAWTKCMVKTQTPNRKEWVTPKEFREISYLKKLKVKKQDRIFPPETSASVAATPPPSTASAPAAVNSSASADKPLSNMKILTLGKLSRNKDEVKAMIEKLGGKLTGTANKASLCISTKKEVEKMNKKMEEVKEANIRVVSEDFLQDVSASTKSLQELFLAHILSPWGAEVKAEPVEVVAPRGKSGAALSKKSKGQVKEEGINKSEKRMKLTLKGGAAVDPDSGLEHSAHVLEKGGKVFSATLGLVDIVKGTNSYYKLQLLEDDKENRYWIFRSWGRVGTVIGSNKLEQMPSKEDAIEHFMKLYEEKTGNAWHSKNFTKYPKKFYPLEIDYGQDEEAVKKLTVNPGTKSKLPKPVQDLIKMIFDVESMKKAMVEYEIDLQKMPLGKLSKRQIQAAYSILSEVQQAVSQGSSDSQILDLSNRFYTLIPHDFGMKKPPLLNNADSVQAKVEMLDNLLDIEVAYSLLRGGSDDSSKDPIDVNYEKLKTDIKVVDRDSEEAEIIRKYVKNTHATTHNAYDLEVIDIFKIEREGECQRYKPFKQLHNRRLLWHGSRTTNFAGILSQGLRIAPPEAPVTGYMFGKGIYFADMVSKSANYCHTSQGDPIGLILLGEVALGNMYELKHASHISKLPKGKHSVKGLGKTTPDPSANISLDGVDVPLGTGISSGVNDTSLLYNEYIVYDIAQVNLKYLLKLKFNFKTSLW
Chain of PARP2 (O88554 whole entry): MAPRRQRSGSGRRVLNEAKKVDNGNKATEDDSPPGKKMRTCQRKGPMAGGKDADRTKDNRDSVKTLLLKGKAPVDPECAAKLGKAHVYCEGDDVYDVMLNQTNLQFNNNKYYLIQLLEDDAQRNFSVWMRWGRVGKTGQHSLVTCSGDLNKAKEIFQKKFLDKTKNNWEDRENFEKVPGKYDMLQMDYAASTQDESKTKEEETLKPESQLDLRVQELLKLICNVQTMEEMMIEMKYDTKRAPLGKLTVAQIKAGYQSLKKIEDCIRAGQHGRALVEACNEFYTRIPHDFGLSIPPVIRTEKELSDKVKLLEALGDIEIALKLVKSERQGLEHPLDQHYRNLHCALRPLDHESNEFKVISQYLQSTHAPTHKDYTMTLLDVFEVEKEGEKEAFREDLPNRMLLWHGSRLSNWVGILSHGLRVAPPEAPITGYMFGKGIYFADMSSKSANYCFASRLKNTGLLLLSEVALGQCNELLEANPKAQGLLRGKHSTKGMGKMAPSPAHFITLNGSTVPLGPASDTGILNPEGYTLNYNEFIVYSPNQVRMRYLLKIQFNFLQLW

B1: Pho-dRP (dsDNA)
DNA 1: GGCGACTAAGCCGGGC
DNA 2: AACGCCAGGGCCTCCC
DNA 3: GGGAGGCCCTGGCGTTGCCCGGCTTAGTCGCC
modifications: strand 1 3'-terminal C is FAP-dCMP (photoreactive exo-N-substituted dC); strand 2 carries 5'-dRP (phosphate-linked, from Ung-treated 5'-pU)
As to B1, the binding result with PARP2 and with PARP1 was “binds” throughout.

B2: Pho-Flap (dsDNA)
DNA 1: GGCGACTAAGCCGGGC
DNA 2: GATAACAACGCCAGGGCCTCCC
DNA 3: GGGAGGCCCTGGCGTTGCCCGGCTTAGTCGCC
modifications: strand 1 3'-terminal C is FAP-dCMP
Turning to B2, the binding result with HMGB1 was “binds”.
